Experimental findings from publication PMC5343488, “Epilepsy and intellectual disability linked protein Shrm4 interaction with GABABRs shapes inhibitory neurotransmission” (Nature Communications, 2017) are described below.

This assay concerns the target T1, GST-PDZ (Shrm4-PDZ domain, aa 1–91) (human, UniProt Q9ULL8 1-91).
T1 construct: Shrm4 (Shroom4), encoded by KIAA1202, PDZ domain, aa 1-91; in pGEX-4T-1, which should put GST at the N-terminus; source: E. coli BL21, purified using standard procedures
T1 sequence (looked up): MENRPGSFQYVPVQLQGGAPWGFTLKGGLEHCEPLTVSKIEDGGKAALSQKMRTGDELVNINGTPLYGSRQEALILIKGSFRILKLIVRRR
In words: pull-down; competition: synthetic Tat-859–870 peptide added to the HEK293 lysate before the pull-down of GABAB1a by purified GST-PDZ; 10 μM or different concentrations. The settings on record: both partners purified.

B1: Tat-859–870 peptide (peptide)
peptide: YGRKKRRQRRRITRGEWQSET
notes: stretch of the GABAB1 C-tail named 859–870; also called Tat-peptide; Tat-859–870 (active) peptide; source: synthetic peptide (bought: Primm, Italy, and China Peptide, China)
As to B1, the binding result is “binds”.
